In data set [1] the target is Sema2b_(full) with the dimerization cysteine mutated to serine (Drosophila melanogaster). The data set can be described thus: SEC-MALS; Superdex 200 Increase 10/300, 15 mM HEPES pH 7.4, 150 mM NaCl; with SDS-PAGE under reducing and non-reducing conditions; initial concentrations up to 2 mg/ml; monomer to dimer.
Data set [2] addresses T1, Drosophila melanogaster PlexA1–4-mVenus (Drosophila melanogaster, UniProt Q9V491 28-730).
T1 construct: Plexin A, Drosophila melanogaster, domains 1-4 of the ectodomain, residues 28Q-730T; source: HEK293T, transient transfection, purified (HisTrap, SEC); not shown: mVenus, C-terminal, kept
T1 sequence (looked up): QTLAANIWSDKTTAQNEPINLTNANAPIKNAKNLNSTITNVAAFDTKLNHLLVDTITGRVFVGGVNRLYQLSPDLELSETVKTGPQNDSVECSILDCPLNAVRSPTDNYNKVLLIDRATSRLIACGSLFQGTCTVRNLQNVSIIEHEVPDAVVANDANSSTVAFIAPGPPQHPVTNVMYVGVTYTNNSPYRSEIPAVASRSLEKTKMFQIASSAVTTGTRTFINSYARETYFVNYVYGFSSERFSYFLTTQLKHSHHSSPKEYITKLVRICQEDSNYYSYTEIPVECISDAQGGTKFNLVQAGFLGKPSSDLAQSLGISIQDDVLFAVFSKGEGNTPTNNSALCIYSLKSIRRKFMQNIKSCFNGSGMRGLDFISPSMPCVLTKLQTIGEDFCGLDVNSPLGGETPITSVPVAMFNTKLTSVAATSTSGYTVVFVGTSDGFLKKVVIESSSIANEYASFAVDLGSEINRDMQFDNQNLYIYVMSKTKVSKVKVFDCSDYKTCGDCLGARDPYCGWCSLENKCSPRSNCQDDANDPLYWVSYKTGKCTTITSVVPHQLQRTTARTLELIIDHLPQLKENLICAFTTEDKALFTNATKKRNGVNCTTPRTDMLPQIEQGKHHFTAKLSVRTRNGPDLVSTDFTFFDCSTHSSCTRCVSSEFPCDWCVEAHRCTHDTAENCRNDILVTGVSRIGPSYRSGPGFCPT
The data set can be described thus: MST; plexin-mVenus kept constant, unlabelled semaphorin titrated (1:1 dilution series); 25 °C; 15 mM HEPES pH 7.4, 150 mM NaCl, 2 mM CaCl2, 0.005% Tween-20; 1 h incubation at room temperature; apparent Kd.

Data set [3] concerns the target Drosophila melanogaster semaphorin-1a full-length ectodomain (Sema1a_(ecto)) (Drosophila melanogaster). The data set can be described thus: SEC-MALS; Superdex 200 Increase 10/300, 15 mM HEPES pH 7.4, 150 mM NaCl; with SDS-PAGE under reducing and non-reducing conditions; initial concentrations up to 2 mg/ml; monomer to dimer.
For data set [4], the target named is Drosophila melanogaster PlexB1–4-mVenus (Drosophila melanogaster) (UniProt Q9V4A7). The data set can be described thus: MST; plexin-mVenus kept constant, unlabelled semaphorin titrated (1:1 dilution series); 25 °C; 15 mM HEPES pH 7.4, 150 mM NaCl, 2 mM CaCl2, 0.005% Tween-20; 1 h incubation at room temperature; apparent Kd.
Sequence of Drosophila melanogaster PlexB1–4-mVenus (Drosophila melanogaster) (Q9V4A7 35-730): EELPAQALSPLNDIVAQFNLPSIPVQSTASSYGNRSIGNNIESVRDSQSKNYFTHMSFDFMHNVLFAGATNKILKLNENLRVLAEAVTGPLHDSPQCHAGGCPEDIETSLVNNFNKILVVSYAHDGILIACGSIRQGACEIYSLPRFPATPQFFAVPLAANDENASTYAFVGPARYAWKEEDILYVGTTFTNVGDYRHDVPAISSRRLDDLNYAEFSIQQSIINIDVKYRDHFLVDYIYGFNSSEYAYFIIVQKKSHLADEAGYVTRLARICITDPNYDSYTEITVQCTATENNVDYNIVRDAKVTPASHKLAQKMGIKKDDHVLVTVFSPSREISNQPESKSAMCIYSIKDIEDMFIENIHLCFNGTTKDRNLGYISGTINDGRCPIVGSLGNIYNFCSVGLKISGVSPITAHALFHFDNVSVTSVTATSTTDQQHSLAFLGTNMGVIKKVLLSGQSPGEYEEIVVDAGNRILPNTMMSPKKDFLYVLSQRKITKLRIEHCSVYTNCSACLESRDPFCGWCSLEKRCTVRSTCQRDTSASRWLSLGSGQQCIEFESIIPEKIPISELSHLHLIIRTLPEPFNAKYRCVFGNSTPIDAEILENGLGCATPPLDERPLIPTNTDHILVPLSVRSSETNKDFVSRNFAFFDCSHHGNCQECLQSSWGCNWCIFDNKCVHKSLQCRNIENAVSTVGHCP
The target of data set [5] is Drosophila melanogaster full-length secreted semaphorin-2b (Sema2b_(full)) (Drosophila melanogaster). Put plainly: SEC-MALS; Superdex 200 Increase 10/300, 15 mM HEPES pH 7.4, 150 mM NaCl; with SDS-PAGE under reducing and non-reducing conditions; initial concentrations up to 2 mg/ml; monomer to dimer.
Data set [6] deals with the molecule itself. Described as above.
Data set [7] has as its target Drosophila melanogaster full-length secreted semaphorin-2b (Sema2b_(full)) (Drosophila melanogaster). Put plainly: SEC-MALS; co-expressed heterodimer purified by HisTrap, StrepTactin and SEC; Superdex 200 Increase 10/300, 15 mM HEPES pH 7.4, 150 mM NaCl; with SDS-PAGE under reducing and non-reducing conditions.

Numbering of substitutions follows the chain as printed. In names and notes the source's numbering stands. Like-named read-outs stand apart in the source and are kept apart here.

As to “Sema2b_(full) with the dimerization cysteine mutated to serine (ligand)”, the stoichiometry N in data set [1] was determined as 2.

For the molecule “Fc-tagged dimerized Sema1a_(ecto) (Sema1a_(ecto)-Fc) (from UniProt Q24322 21-602) (Fc fusion)”, in data set [2], the Kd was 141 nM.

In the case of “Drosophila melanogaster semaphorin-1a full-length ectodomain (Sema1a_(ecto)) (domain or fragment)”, the stoichiometry N in data set [3] was determined as 2.

In the case of “Drosophila melanogaster full-length secreted semaphorin-2b (Sema2b_(full)) (ligand)”, the Kd in data set [4] amounted to 3 nM. The molecule further yielded a stoichiometry N in data set [5] of 2.

Turning to “Sema2a/2b heterodimer (Sema2a_(full)-TwinStrep with Sema2b_(full)-His6, disulfide-linked) (from UniProt Q24323 26-724) (complex)”, the Kd in data set [4] worked out at 13 nM.

B1: Sema1b_(ecto) with phenylalanine 254 mutated to cysteine (domain or fragment, Drosophila melanogaster, UniProt Q7KK54 37-659, looked up)
chain: DVKPDLQTKQDKVLAHFIGNSTDYFKILDHNDEFVLVGAKDVIYNVSLNGLKEIARLEWHSTDADRELCALKGKHEWDCHNYLRVYALRPNGEVLLCGTNSYKPRCRHYTPVEVSSEEAGSAGHAHAMRYEVSRDVEAQGLCPYSPAHNSTYAFADGHLYSATVADFSGGDPLIYRENLRTEQYDLKQLNQPDFVGAIERNGYVLFFFRELSMEVMNCGKAVYSRVARVCKNDRGGPYSHGKSWTSFLKARLNCSVPGEFPFYFDEIQAISPIVESGSKSLIYAVFTTSVNAIPGSAVCAFNVDDILAAFDGEFKSQKDSQSHWLPVEREQVPKPRPGQCVEDSRTLTSIAVNFIKNHPLMEEAVPAVHGRPLLTKVNLHHRLTAIAVHPQVKSLSGAYYDVIYSGTDDGKVTKFINILSTHPNSTVDRLKTVVISEMQVLPLGTPIRELVISTSKNSLVVVSDGSLVSVPLHHCSHIVDCLGCLSLQDPICAWDLQTHECKNLATSQHKFGTKTYLQSLNSTKKAAALLCPHIPRDAPGAETVSFVTMAPPPTEEQKLLYSNVGSSQGNQPSLEQQPTGGDDFGLNKITLTSMDPDDIMPNLNDPQKSTASVDEIKYASTPS
notes: Semaphorin-1b, Drosophila melanogaster, ectodomain, residues 37D-659S, F254C; also called Sema1b_(ecto) F254C; source: HEK293T, transient transfection, purified (HisTrap, SEC)
Regarding B1, in data set [6], the “stoichiometry N” value stood at 2.

B2: Drosophila melanogaster semaphorin-1b full-length ectodomain (Sema1b_(ecto)) (domain or fragment, UniProt Q7KK54 37-659, looked up)
chain: B1 chain with C218F
notes: Semaphorin-1b, Drosophila melanogaster, ectodomain, residues 37D-659S; Monomer in solution; source: HEK293T (30 °C), transient transfection, purified (HisTrap, SEC)
With B2, the Kd in data set [2] (both partners purified) amounted to 586 ± 134 nM.

B3: Drosophila melanogaster full-length secreted semaphorin-2a (Sema2a_(full)) (ligand, UniProt Q24323 26-724, looked up)
chain: DYENTWNFYYERPCCTGNDQGNNNYGKHGADHVREFNCGKLYYRTFHMNEDRDTLYVGAMDRVFRVNLQNISSSNCNRDVINLEPTRDDVVSCVSKGKSQIFDCKNHVRVIQSMDQGDRLYVCGTNAHNPKDYVIYANLTHLPRSEYVIGVGLGIAKCPYDPLDNSTAIYVENGNPGGLPGLYSGTNAEFTKADTVIFRTDLYNTSAKRLEYKFKRTLKYDSKWLDKPNFVGSFDIGEYVYFFFRETAVEYINCGKAVYSRIARVCKKDVGGKNLLAHNWATYLKARLNCSISGEFPFYFNEIQSVYQLPSDKSRFFATFTTSTNGLIGSAVCSFHINEIQAAFNGKFKEQSSSNSAWLPVLNSRVPEPRPGTCVNDTSNLPDTVLNFIRSHPLMDKAVNHEHNNPVYYKRDLVFTKLVVDKIRIDILNQEYIVYYVGTNLGRIYKIVQYYRNGESLSKLLDIFEVAPNEAIQVMEISQTRKSLYIGTDHRIKQIDLAMCNRRYDNCFRCVRDPYCGWDKEANTCRPYELDLLQDVANETSDICDSSVLKKKIVVTYGQSVHLGCFVKIPEVLKNEQVTWYHHSKDKGRYEIRYSPTKYIETTERGLVVVSVNEADGGRYDCHLGGSLLCSYNITVDAHRCTPPNKSNDYQKIYSDWCHEFEKYKTAMKSWEKKQAQCSTRQNFSSNQHPNEIFRKPNV
notes: Semaphorin-2a, Drosophila melanogaster, residues 26D-724V; Disulfide-linked dimer in solution; source: HEK293T (37 °C), transient transfection, purified (HisTrap, SEC)
Turning to B3, the “stoichiometry N” value in data set [6] was 2; in data set [7], 1.

B4: Sema2a_(full) with the dimerization cysteine (Cys279) mutated to serine (ligand, Drosophila melanogaster, UniProt Q24323 26-724, looked up)
chain: B3 chain with C254S
notes: Semaphorin-2a, Drosophila melanogaster, residues 26D-724V, Cys279 to serine; also called Sema2a_(full) Cys to Ser mutant; source: HEK293T, transient transfection, purified (HisTrap, SEC)
Turning to B4, in data set [6], the “stoichiometry N” value came to 2.

These data come from publication PMC6695400, “Diversity of oligomerization in Drosophila semaphorins suggests a mechanism of functional fine-tuning” (Nature Communications, 2019).
